Experimental data taken from article PMC13433802, “Structure of the NAT10 acetyltransferase and mechanism of tRNA acetylation” (Nature Communications, 2026).
Values belong to the molecule of their own block, whether it stands above or below them.

What was measured:
[1] = target: T1, CtNAT10 (Chaetomium thermophilum NAT10; Kre33) (Thermochaetoides thermophila, UniProt G0S273); experiment: differential scanning fluorimetry, SYPRO orange; assay type: binding; settings: apo Tm 42.0 ± 0.3 °C, 5 mM MgCl2, Hepes pH 7.5, Tm with ligand, not a shift
T1 construct: codon-optimised synthetic gene; Sf9 (functional assays and 9B0I) or E. coli (9AYM, 9B0E)
T1 sequence (G0S273 1-1073): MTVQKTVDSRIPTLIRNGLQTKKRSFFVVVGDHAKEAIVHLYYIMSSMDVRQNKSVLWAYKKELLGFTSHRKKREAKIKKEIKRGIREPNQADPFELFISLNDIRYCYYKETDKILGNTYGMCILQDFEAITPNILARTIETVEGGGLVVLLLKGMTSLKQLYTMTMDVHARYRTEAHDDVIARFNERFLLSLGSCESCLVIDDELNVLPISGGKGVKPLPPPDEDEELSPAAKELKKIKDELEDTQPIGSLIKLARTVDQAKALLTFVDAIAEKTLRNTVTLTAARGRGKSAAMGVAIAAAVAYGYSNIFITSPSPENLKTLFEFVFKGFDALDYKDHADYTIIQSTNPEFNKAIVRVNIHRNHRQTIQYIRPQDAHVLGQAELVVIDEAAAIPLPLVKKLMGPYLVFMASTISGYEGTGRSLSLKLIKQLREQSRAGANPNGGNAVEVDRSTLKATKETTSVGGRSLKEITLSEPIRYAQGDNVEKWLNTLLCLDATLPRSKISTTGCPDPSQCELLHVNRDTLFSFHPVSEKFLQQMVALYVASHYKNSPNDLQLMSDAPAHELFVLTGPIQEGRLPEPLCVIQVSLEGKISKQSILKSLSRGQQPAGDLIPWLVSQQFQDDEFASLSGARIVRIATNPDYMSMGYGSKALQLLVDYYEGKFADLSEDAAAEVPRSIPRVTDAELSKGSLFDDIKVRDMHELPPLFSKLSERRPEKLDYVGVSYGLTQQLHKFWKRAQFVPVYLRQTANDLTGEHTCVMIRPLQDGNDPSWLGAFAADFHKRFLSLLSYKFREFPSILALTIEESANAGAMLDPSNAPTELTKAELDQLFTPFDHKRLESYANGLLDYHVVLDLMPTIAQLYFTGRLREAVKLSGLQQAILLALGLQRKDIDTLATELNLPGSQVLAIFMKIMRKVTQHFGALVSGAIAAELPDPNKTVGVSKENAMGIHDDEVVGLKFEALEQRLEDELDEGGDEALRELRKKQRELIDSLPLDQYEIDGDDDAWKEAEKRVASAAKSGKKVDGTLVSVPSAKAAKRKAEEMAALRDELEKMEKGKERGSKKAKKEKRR

[2] = target: Chaetomium thermophilum NAT10 (CtNAT10), E. coli-produced recombinant (Chaetomium thermophilum); experiment: mass photometry; 1 ul of 200 nM protein stock into 19 ul dilution buffer (10 nM); 300 mM NaCl, 25 mM Hepes-NaOH pH 7.5, 1 mM TCEP; room temperature
[3] = target: Chaetomium thermophilum NAT10 (CtNAT10), Sf9-produced recombinant (Chaetomium thermophilum); experiment: as above
CtNAT10 WT [4] = target: T2, CtNAT10 WT (Chaetomium thermophilum, UniProt G0S273 1-1073); experiment: EMSA; 0.5 mM ATP, 0.1 mM acetyl-CoA; 50 mM Hepes-KOH pH 7.6, 90 mM NaCl (Fig 1B) or 75 mM NaCl + 0.2 mg/ml BSA (Fig S4A), 12 mM KCl, 10 mM MgCl2, 1 mM DTT, 0.5 mM ATP, 0.1 mM acetyl-CoA; Fig 1B 15; settings: protein: recombinant; tags: N-terminal 6xHis; chain copies: 2; tRNA fold
T2 sequence: T1 sequence (G0S273 1-1073)

CtNAT10 WT [5] = target: T2, CtNAT10 WT; experiment: EMSA; no THUMPD1; 0.5 mM ATP, 0.1 mM acetyl-CoA; 50 mM Hepes-KOH pH 7.6, 90 mM NaCl (Fig 1B) or 75 mM NaCl + 0.2 mg/ml BSA (Fig S4A), 12 mM KCl, 10 mM MgCl2, 1 mM DTT, 0.5 mM ATP, 0.1 mM acetyl-CoA; Fig 1B 15; settings: protein: recombinant; tags: N-terminal 6xHis; chain copies: 2; tRNA fold

Molecule: Nc1ncnc2c1ncn2[C@@H]1O[C@H](COP(=O)(O)OP(=O)(O)OP(=O)(O)O)[C@@H](O)[C@H]1O [ATP]
Tm ([1]; ligand series 0.25-2500 μM): 53.8 ± 0.1 °C

Molecule: Chaetomium thermophilum NAT10 (CtNAT10), E. coli-produced recombinant (enzyme)
stoichiometry N [2]: 2

B1: ct-tRNASer (synthetic) (structured_RNA)
RNA: GACAACUUGGCCGAGUGGUUAAGGCGACAGACUUGAAAUCUGUUGGGUUCGCCCUCACAGGUUCGAAUCCUGUAGUUGUCG
binding result (CtNAT10 WT [4]): binds

B2: CttRNAAla (IVT) (structured_RNA)
RNA: GGGCGUGUAGCUCAGUUGGUAGAGCGUUCGCUUAGCAUGCGAGAGGUCCUGGGUUCGAUUCCCAGCCCGUCCA
binding result (CtNAT10 WT [5]): binds

B3: ct-tRNALeu (synthetic) (structured_RNA)
RNA: GGCAAGAUGGCCGAGCGGUCCAAGGCGCCAGGUUCAGGUCCUGGUCUCCGCAAGGGGGCGUGAGUUCGAAUCUCACUCUUGUCA
binding result (CtNAT10 WT [4]): binds

Further lines, results first:

Tm ([1]; ligand series 0.25-2500 μM): 46.1 ± 0.1 °C
Molecule: CC(=O)SCCNC(=O)CCNC(=O)[C@H](O)C(C)(C)COP(=O)(O)OP(=O)(O)OC[C@H]1O[C@@H](n2cnc3c(N)ncnc32)[C@H](O)[C@@H]1OP(=O)(O)O [acetyl-CoA]

Tm ([1]; ligand series 0.20-2000 μM): 46.4 ± 0.1 °C
Molecule: CC(C)(COP(=O)(O)OP(=O)(O)OC[C@H]1O[C@@H](n2cnc3c(N)ncnc32)[C@H](O)[C@@H]1OP(=O)(O)O)[C@@H](O)C(=O)NCCC(=O)NCCSCC(=O)Nc1ccn([C@@H]2O[C@H](CO)[C@@H](O)[C@H]2O)c(=O)n1 [cytidine-amide-CoA]

stoichiometry N [3]: 2
Molecule: Chaetomium thermophilum NAT10 (CtNAT10), Sf9-produced recombinant (enzyme)
